Source: patent publication US20010009766A1

How the values were obtained:
[1] = molecular target: rat GALR3 receptor (rat); assay: displacement of porcine 125I-galanin, membranes of transiently transfected COS-7 cells
[2] = molecular target: human GALR3 receptor (human) (UniProt O60755); assay: cell-based or functional assay
[3] = molecular target: rat GALR3 receptor (rat); assay: apparent binding affinity, rat GalR3 in COS-7 (repeats Table 4)
[4] = molecular target: rat GALR3 receptor (rat); assay: displacement of porcine 125I-galanin, membranes of stable cell line 293-rGalR3-105
[5] = molecular target: rat GALR1 receptor (rat); assay: displacement of porcine 125I-galanin, membranes of transiently transfected COS-7 cells
[6] = molecular target: rat GALR3 receptor (rat); assay: displacement of porcine 125I-galanin, rat GalR3 transiently expressed in COS-7 membranes
[7] = molecular target: rat GALR2 receptor (rat) (UniProt O08726); assay: displacement of porcine 125I-galanin, membranes of transiently transfected COS-7 cells
Chain of rat GALR2 receptor (rat) (O08726 whole entry): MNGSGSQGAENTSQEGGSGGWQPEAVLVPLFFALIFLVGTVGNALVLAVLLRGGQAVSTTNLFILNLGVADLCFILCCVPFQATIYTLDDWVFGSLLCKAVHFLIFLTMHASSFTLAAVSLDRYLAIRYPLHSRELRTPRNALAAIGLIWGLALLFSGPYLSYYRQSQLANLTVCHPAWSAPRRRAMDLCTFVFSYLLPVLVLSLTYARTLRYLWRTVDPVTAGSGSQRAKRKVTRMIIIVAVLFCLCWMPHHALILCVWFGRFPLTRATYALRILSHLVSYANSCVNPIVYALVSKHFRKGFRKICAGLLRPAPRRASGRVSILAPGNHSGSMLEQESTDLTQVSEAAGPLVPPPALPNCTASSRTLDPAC

[8] = molecular target: human GALR3 receptor (human) (UniProt O60755); assay: displacement of porcine 125I-galanin, membranes of stable LM(tk-) line L-hGalR3-228

Chain of human GALR3 receptor (human) (O60755 whole entry, form in doubt): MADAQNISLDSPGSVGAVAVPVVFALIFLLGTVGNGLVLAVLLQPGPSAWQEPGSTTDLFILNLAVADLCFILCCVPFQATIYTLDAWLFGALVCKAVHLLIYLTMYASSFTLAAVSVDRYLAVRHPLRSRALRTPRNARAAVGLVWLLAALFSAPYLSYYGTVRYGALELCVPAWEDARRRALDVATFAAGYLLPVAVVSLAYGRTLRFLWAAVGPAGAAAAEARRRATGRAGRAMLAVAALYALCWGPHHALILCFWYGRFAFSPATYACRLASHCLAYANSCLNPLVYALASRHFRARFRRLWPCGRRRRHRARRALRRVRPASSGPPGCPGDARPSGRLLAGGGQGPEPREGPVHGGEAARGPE

Ki [1] [nM]	Oocyte EC50 (stimulation of GIRKs) [2] [nM]	Ki [3] [nM]	Ki [4] [nM]	Ki [5] [nM]	Ki [6] [nM]	Ki [7] [nM]	Ki [8] [nM]	Substance
> 1000	–	–	–	–	–	–	–	D-Trp2-galanin 1-29 (peptide)
–	1910	–	–	–	–	–	–	galanin -7 to +29 (peptide)
68	343	23	9.6	16	23	–	–	C7 (peptide)
18	–	–	–	9.5	9	2	–	galantide (peptide)
6.7	–	–	3.2	0.33	3.7	0.57	7.8	M35 (peptide)
> 1000	–	–	–	–	–	–	–	D-Trp2-galanin 1-16 (peptide)
